Laboratory results: the supplement of paper PMC10567573

B1: RPAIN (parent)
chain: ISEYEKSLQFDEKCLSIMLAEWEA

Variants of: B1
Experiment: protein stability index of a GFP-peptide fusion (GPS, HEK-293T) (PSI 1-6); higher = more stable
Conditions: c terminus: a fixed tail appended
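Further: lentivirally expressed fusions sorted by FACS into six bins by GFP to DsRed ratio, PSI derived from sequencing read proportions per bin multiplied by bin number.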

Protein stability index of substitutions, site by site:
E5: V 2.51, M 2.08, W 1.23, S 1.82, P 2.33, N 1.51, R 1.32, T 1.58, Q 1.92, Y 2.3
A24: N 2.32, L 1.59, C 1.99, G 2.11, H 2.49, E 1.87, F 3.13, P 2.49, M 3.31, K 2.27, I 1.96, D 2.5, Q 2.54
A20: M 2.49, Q 2.19, N 1.44, K 1.64, R 1.25, F 1.54, P 3.02, T 2.25, L 1.4, G 2.01, C 1.77, V 1.8, I 1.48, Y 2.08, S 1.88, D 1.91, E 1.98, H 1.64
Q9: V 1.25, T 1.86, P 1.95, Y 1.58, K 2.23, I 1.96, L 1.46, E 1.78, D 2.02, A 1.76, H 1.85, C 1.64, N 2.32, R 2.08, S 1.7, F 2.88, M 2.03
E12: G 2.27, T 1.67, I 1.67, P 1.76, V 1.26, K 1.75, N 2.47, F 1.99, W 1.85, C 1.9, Q 1.98, R 2.33, D 2.17, S 1.92, A 2.34, Y 1.33, M 1.66, H 2.02
S16: V 1.88, N 1.37, C 1.91, E 1.96, L 2.1, Q 2.11, M 1.49, P 2.85, R 2.62, D 2.08, K 2.17, A 2.32, Y 2.83, F 2.09, I 2.84, T 2.1, G 2.34, W 1.86, H 2.56
K6: M 1.73, Q 2.06, L 1.2, W 1.79, D 2.07, N 1.91, T 1.92, H 1.97, A 2.2, V 1.16, G 1.15, E 1.78, R 2.39, C 2.67, S 1.34
S7: Y 1.76, Q 2.13, M 1.56, H 2.7, I 1.6, F 2.08, C 2.46, P 1.47, W 2, N 1.8, E 1.48, L 1.44, K 1.38, D 1.93, G 1.67, R 1.69
L8: H 2.65, S 2.68, D 3.69, I 2.79, M 2.29, V 2.22, E 3.45, G 3.44, K 2.47, Q 3.1, C 1.96, N 2.71, Y 2.27, W 2.9, T 3.08, P 2.97, F 1.9, R 2.38, A 2.63
L19: I 2.77, F 3.03, C 2.79, P 4.37, G 3.04, A 2.59, M 2.12, Y 2.88, W 2.5, K 3.58, V 2.64, D 4.34, R 2.39, S 3.4, Q 3.6, N 3.73, E 4.02, H 3.27, T 3.18
W22: G 1.72, N 4.3, A 2.18, E 4.21, R 3.37, T 2.03, F 2.79, P 3.93, V 1.52, M 1.78, H 3.98, Y 1.69, I 1.68, K 4.47, C 1.5, D 3.88, L 2.15, Q 3.08, S 2.11
I17: V 2.38, Q 2, D 2.47, T 2.12, F 1.8, A 1.6, C 1.63, G 2.8, K 2.08, R 2.15, Y 1.2, M 1.97, P 3.53, L 1.85, H 2.51, W 1.47, N 2.48, S 2.08, E 2.16
E21: G 1.37, S 2.31, K 1.47, Y 1.93, D 2.27, R 3.58, T 3.61, A 2.12, N 2.38, W 2.81, M 1.9, P 2.73, I 3.31
F10: Y 1.97, H 3.33, Q 3.51, P 3.43, A 3.21, D 3.15, G 2.81, L 2.07, S 3.08, I 2.93, M 2.45, V 2.45, K 3.53, T 3.01, N 2.9, W 2.88, C 2.99, R 2.96, E 3.47
C14: A 1.9, P 3.42, H 2.81, R 2.32, M 1.58, Q 2.24, L 1.44, I 2.16, K 1.59, F 2.38, S 1.89, V 1.75, G 2.27, W 1.35, N 1.96, D 2.16, Y 1.16, T 1.71
L15: Q 3.73, M 2.2, E 4.41, K 4.06, V 2.09, D 4.09, P 4.02, G 3.62, S 3.92, A 3.74, R 4.1, H 3.17, I 3.52, C 2.66, W 2.86, T 3.73, Y 3.38, F 2.21, N 3.92
K13: V 1.7, Q 1.47, M 1.34, F 1.91, S 2.25, N 1.19, Y 3.37, E 1.71, A 2.1, G 1.8, T 1.44, D 1.76, R 2.05, P 2.72, H 1.73
D11: P 1.99, N 2.45, S 2.29, A 2.17, H 1.68, T 1.87, G 2.15, L 3.63, R 1.77, K 1.95
E23: A 3.07, S 2.66, R 1.85, T 1.76, G 4.39, F 2.53, H 2.59, V 3.22, P 1.65, C 1.87, I 2.4, M 2.36, Y 1.61, L 1.83, W 2.83, Q 2.06, N 2.14, D 1.62, K 2.53
M18: C 1.81, H 2.41, Y 2.39, W 2.52, N 2.13, G 3.33, A 1.86, F 2.5, I 1.4, T 2.79, S 2.56, V 1.51, P 4.27, E 1.84, D 3.26, K 2.19, R 1.93, Q 2.75, L 2.18
